Measurements as given in patent publication US20150065556A1, “THERAPEUTIC TARGETS FOR MITOCHONDRIAL DISORDERS” (Whitehead Institute for Biomedical Research, priority 2013, published 2015).

Columns and labels:
[1] = molecular target: 60 kDa heat shock protein, mitochondrial (UniProt P10809); assay: IP-MS with Flag tagged ATPIF1 as bait, no antimycin
[2] = molecular target: ATP synthase subunit O, mitochondrial precursor (UniProt P48047); assay: as above
[3] = molecular target: ATP synthase subunit alpha (UniProt P25705); assay: as above
Chain of ATP synthase subunit alpha (P25705 44-553): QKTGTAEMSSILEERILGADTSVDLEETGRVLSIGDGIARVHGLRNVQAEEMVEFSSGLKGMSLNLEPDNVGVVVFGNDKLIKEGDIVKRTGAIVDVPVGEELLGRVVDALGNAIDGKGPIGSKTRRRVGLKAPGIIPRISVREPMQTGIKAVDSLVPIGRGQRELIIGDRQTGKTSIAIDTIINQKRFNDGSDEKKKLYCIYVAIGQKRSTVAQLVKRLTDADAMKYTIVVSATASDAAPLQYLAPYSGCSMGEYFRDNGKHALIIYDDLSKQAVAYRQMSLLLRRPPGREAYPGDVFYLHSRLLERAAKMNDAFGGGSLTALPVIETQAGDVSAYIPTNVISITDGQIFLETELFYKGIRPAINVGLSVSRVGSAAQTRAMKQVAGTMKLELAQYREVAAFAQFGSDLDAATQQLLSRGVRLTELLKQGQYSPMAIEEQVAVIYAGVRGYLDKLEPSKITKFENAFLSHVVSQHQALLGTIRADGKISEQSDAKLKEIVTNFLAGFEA

[4] = molecular target: ATP synthase subunit b, mitochondrial precursor (UniProt P24539); assay: as above
Chain of ATP synthase subunit b, mitochondrial precursor (P24539 43-256 limits assumed): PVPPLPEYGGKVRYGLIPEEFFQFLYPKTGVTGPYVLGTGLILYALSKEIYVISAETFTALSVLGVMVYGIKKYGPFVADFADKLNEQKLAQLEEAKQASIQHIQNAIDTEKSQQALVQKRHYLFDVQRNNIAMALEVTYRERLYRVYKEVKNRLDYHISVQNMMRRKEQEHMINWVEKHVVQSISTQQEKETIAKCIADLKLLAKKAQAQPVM

[5] = molecular target: ATP synthase subunit beta (UniProt P06576); assay: as above
Chain of ATP synthase subunit beta (P06576 48-529): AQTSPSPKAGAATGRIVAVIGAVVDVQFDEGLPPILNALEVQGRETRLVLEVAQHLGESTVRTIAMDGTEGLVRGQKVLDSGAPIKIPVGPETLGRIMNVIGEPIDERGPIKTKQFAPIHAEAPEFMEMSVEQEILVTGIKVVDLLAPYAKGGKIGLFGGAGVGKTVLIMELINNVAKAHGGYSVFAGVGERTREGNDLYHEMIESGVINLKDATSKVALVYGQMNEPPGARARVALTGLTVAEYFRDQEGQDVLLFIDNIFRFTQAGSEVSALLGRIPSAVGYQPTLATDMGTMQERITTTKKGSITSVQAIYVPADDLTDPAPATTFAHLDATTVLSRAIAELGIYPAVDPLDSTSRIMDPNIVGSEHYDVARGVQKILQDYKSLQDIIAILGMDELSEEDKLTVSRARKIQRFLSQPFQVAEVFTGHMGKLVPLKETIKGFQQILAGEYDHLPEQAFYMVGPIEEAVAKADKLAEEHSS

[6] = molecular target: ATP synthase subunit d, mitochondrial isoform a (UniProt O75947); assay: as above
Chain of ATP synthase subunit d, mitochondrial isoform a (O75947 2-161): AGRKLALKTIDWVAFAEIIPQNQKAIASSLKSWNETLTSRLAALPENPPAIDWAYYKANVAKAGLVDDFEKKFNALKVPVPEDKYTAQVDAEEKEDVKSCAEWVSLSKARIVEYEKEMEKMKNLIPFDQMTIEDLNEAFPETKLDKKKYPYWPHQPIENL

[7] = molecular target: ATP synthase subunit g, mitochondrial (UniProt O75964); assay: as above
Chain of ATP synthase subunit g, mitochondrial (O75964 2-103): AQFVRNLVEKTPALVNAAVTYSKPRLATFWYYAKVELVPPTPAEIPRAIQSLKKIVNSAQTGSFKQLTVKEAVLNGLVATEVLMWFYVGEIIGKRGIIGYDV

[8] = molecular target: ATP synthase subunit gamma, isoform L (UniProt P36542); assay: as above
Chain of ATP synthase subunit gamma, isoform L (P36542 26-298): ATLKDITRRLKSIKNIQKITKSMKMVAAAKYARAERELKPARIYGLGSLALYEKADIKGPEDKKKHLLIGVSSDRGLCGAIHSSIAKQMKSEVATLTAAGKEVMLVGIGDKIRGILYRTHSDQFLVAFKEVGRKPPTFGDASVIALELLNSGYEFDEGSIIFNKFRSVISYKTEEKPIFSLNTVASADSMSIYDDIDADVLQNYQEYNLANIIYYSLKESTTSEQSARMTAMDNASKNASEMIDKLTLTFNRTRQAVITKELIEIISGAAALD

[9] = molecular target: ATPase inhibitor, mitochondria; isoform 1 (UniProt Q9UII2); assay: as above
Chain of ATPase inhibitor, mitochondria; isoform 1 (Q9UII2 26-106): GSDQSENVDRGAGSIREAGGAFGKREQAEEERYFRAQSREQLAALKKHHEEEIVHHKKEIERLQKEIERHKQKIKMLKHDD

[10] = molecular target: UDP-glucose: glycoprotein glucosyltransferase 1 (UniProt Q9NYU2); assay: as above
[11] = molecular target: mitochondrial-processing peptidase subunit alpha (UniProt Q10713); assay: as above
Chain of mitochondrial-processing peptidase subunit alpha (Q10713 34-525 limits assumed): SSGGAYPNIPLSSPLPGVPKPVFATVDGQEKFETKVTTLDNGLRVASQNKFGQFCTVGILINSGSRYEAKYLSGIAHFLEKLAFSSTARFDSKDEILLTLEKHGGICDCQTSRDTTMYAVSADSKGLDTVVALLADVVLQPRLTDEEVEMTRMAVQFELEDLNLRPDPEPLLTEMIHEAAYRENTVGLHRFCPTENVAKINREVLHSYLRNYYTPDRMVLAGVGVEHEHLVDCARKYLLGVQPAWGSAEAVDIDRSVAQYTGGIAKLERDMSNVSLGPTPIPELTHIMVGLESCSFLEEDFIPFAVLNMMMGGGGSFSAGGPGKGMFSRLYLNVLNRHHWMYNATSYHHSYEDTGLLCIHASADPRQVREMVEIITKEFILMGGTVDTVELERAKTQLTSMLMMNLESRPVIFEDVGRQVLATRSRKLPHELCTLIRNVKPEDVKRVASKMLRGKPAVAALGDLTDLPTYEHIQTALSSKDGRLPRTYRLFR

[12] = molecular target: mitochondrial-processing peptidase subunit beta (UniProt O75439); assay: as above
Chain of mitochondrial-processing peptidase subunit beta (O75439 44-489 limits assumed): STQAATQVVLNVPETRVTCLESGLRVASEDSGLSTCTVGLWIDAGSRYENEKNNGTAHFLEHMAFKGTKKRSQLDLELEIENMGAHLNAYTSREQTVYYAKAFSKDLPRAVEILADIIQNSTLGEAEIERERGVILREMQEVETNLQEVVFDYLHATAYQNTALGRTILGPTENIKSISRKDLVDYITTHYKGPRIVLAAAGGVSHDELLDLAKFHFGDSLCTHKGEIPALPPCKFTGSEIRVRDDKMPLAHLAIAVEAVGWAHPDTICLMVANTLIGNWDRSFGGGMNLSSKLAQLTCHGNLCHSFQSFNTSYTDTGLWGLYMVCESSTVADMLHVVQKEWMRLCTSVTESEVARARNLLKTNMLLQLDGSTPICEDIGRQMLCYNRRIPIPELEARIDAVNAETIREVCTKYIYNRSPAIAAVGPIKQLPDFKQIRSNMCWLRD

[13] = molecular target: ornithine aminotransferase (UniProt P04181); assay: as above
Chain of ornithine aminotransferase (P04181 26-439 limits assumed): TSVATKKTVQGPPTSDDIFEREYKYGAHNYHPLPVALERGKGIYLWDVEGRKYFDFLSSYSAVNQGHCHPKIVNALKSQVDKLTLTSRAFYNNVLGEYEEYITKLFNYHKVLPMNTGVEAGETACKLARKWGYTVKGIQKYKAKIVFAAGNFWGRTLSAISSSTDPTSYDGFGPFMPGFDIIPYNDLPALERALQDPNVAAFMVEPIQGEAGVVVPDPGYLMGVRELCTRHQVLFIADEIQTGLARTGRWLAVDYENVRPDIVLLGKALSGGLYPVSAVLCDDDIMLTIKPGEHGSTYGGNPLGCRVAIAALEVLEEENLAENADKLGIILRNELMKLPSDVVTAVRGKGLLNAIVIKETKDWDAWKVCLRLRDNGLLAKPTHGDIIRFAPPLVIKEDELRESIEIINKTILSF

protein zyg-11 homolog B [14] = molecular target: protein zyg-11 homolog B (UniProt Q9C0D3); assay: as above
Chain of protein zyg-11 homolog B (Q9C0D3 whole entry): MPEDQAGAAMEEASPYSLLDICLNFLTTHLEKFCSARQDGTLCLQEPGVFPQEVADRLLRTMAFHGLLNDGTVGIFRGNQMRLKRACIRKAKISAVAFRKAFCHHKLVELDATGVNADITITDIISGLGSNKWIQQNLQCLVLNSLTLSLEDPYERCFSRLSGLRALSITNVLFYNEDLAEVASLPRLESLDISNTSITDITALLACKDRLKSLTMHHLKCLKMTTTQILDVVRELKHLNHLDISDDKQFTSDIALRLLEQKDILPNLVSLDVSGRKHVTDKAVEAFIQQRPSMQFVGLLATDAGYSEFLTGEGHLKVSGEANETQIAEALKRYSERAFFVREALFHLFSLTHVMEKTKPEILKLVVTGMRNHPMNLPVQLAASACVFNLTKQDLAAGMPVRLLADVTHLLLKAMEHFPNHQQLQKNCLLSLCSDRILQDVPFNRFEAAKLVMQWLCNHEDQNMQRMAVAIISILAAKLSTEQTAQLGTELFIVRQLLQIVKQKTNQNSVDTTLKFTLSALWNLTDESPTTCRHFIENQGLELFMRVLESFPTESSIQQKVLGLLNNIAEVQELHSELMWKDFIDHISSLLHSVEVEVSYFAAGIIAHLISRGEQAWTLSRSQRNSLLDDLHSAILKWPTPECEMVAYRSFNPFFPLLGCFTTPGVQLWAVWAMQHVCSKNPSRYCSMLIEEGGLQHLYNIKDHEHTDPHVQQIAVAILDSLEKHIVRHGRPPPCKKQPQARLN

[15] = molecular target: 60 kDa heat shock protein, mitochondrial (UniProt P10809); assay: IP-MS, FLAG-OMP25TM bait (control)
[16] = molecular target: ATP synthase subunit O, mitochondrial precursor (UniProt P48047); assay: IP-MS, FLAG-OMP25TM bait (control)
[17] = molecular target: ATP synthase subunit alpha (UniProt P25705); assay: IP-MS, FLAG-OMP25TM bait (control)
[18] = molecular target: ATP synthase subunit b, mitochondrial precursor (UniProt P24539); assay: IP-MS, FLAG-OMP25TM bait (control)
[19] = molecular target: ATP synthase subunit beta (UniProt P06576); assay: IP-MS, FLAG-OMP25TM bait (control)
[20] = molecular target: ATP synthase subunit d, mitochondrial isoform a (UniProt O75947); assay: IP-MS, FLAG-OMP25TM bait (control)
[21] = molecular target: ATP synthase subunit g, mitochondrial (UniProt O75964); assay: IP-MS, FLAG-OMP25TM bait (control)
[22] = molecular target: ATP synthase subunit gamma, isoform L (UniProt P36542); assay: IP-MS, FLAG-OMP25TM bait (control)
[23] = molecular target: ATPase inhibitor, mitochondria; isoform 1 (UniProt Q9UII2); assay: IP-MS, FLAG-OMP25TM bait (control)
[24] = molecular target: UDP-glucose: glycoprotein glucosyltransferase 1 (UniProt Q9NYU2); assay: IP-MS, FLAG-OMP25TM bait (control)
[25] = molecular target: mitochondrial-processing peptidase subunit alpha (UniProt Q10713); assay: IP-MS, FLAG-OMP25TM bait (control)
[26] = molecular target: mitochondrial-processing peptidase subunit beta (UniProt O75439); assay: IP-MS, FLAG-OMP25TM bait (control)
[27] = molecular target: ornithine aminotransferase (UniProt P04181); assay: IP-MS, FLAG-OMP25TM bait (control)
protein zyg-11 homolog B [28] = molecular target: protein zyg-11 homolog B (UniProt Q9C0D3); assay: IP-MS, FLAG-OMP25TM bait (control)

Chain of ATP synthase subunit O, mitochondrial precursor (P48047 24-213 limits assumed): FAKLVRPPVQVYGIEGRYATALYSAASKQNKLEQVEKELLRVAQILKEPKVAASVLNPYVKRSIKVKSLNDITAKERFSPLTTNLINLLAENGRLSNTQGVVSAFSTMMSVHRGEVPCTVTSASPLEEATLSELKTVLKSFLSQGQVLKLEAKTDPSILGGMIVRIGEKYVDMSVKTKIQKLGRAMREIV
Chain of 60 kDa heat shock protein, mitochondrial (P10809 27-573 limits assumed): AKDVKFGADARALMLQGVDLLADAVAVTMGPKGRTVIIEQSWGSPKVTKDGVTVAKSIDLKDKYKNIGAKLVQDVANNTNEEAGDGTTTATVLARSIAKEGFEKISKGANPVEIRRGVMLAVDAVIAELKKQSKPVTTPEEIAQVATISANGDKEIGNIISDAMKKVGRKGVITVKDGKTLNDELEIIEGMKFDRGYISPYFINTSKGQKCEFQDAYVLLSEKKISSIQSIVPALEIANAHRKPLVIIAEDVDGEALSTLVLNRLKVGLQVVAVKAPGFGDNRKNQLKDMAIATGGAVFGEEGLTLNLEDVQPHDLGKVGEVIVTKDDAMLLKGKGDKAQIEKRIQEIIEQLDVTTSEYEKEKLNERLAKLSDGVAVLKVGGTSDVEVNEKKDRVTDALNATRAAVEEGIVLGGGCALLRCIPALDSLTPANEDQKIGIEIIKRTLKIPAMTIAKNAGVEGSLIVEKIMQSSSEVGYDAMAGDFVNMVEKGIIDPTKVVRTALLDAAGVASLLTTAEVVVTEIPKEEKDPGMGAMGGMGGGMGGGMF

Flag tagged ATPIF1 (from UniProt Q9UII2 26-106)
IP-MS count (kind of count not given) [1]: 28 | IP-MS count (kind of count not given) [2]: 47 | IP-MS count (kind of count not given) [3]: 381 | IP-MS count (kind of count not given) [4]: 44 | IP-MS count (kind of count not given) [5]: 375 | IP-MS count (kind of count not given) [6]: 26 | IP-MS count (kind of count not given) [7]: 14 | IP-MS count (kind of count not given) [8]: 59 | IP-MS count (kind of count not given) [9]: 175 | IP-MS count (kind of count not given) [10]: 15 | IP-MS count (kind of count not given) [11]: 14 | IP-MS count (kind of count not given) [12]: 17 | IP-MS count (kind of count not given) [13]: 16 | IP-MS count (kind of count not given) (protein zyg-11 homolog B [14]): 19

FLAG-OMP25TM
IP-MS count (kind of count not given) [15]: 4 | IP-MS count (kind of count not given) [16]: 3 | IP-MS count (kind of count not given) [17]: 11 | IP-MS count (kind of count not given) [18]: 3 | IP-MS count (kind of count not given) [19]: 7 | IP-MS count (kind of count not given) [20]: 1 | IP-MS count (kind of count not given) [21]: 0 | IP-MS count (kind of count not given) [22]: 2 | IP-MS count (kind of count not given) [23]: 3 | IP-MS count (kind of count not given) [24]: 5 | IP-MS count (kind of count not given) [25]: 0 | IP-MS count (kind of count not given) [26]: 0 | IP-MS count (kind of count not given) [27]: 1 | IP-MS count (kind of count not given) (protein zyg-11 homolog B [28]): 0
